Laboratory results as given in the supplement of paper PMC10567573.

B1: CLPTM1 (parent)
chain: MNLHVYISEHEHFTDFNATSALFW

Variants of: B1
Assay: protein stability index of a GFP-peptide fusion (GPS, HEK-293T) (PSI 1-6); higher = more stable
Conditions: c terminus: a fixed tail appended
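Also: lentivirally expressed fusions sorted by FACS into six bins by GFP to DsRed ratio, PSI derived from sequencing read proportions per bin multiplied by bin number.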

**Q.** With MNLHVYISEHYHFTDFNATSALFW [E11Y] as the variant, how does the protein stability index read?
**A.** 3.67

**Q.** With MNLHVYISEHQHFTDFNATSALFW [E11Q] as the variant, how does the protein stability index read?
**A.** 2.87

**Q.** For MNLHVYISEHTHFTDFNATSALFW [E11T], which protein stability index is on record?
**A.** 2.47

**Q.** With MNLHVYISEHCHFTDFNATSALFW [E11C] as the variant, how does the protein stability index read?
**A.** 3.77

**Q.** With MNLHVYISEHAHFTDFNATSALFW [E11A] as the variant, how does the protein stability index read?
**A.** 1.98

**Q.** For MNLHVYISEHMHFTDFNATSALFW [E11M], which protein stability index is on record?
**A.** 3.46

**Q.** With MNLHVYISEHIHFTDFNATSALFW [E11I] as the variant, how does the protein stability index read?
**A.** 2.42

**Q.** Which protein stability index does the source give for FNLHVYISEHEHFTDFNATSALFW [M1F] here?
**A.** 2.29

**Q.** Which protein stability index does the source give for INLHVYISEHEHFTDFNATSALFW [M1I] here?
**A.** 3.18

**Q.** Which protein stability index does the source give for KNLHVYISEHEHFTDFNATSALFW [M1K] here?
**A.** 2.95

**Q.** Which protein stability index does the source give for TNLHVYISEHEHFTDFNATSALFW [M1T] here?
**A.** 2.97

**Q.** With RNLHVYISEHEHFTDFNATSALFW [M1R] as the variant, how does the protein stability index read?
**A.** 2.51

**Q.** Which protein stability index does the source give for YNLHVYISEHEHFTDFNATSALFW [M1Y] here?
**A.** 2.55

**Q.** Which protein stability index does the source give for PNLHVYISEHEHFTDFNATSALFW [M1P] here?
**A.** 1.93

**Q.** Which protein stability index does the source give for GNLHVYISEHEHFTDFNATSALFW [M1G] here?
**A.** 2.8

**Q.** For VNLHVYISEHEHFTDFNATSALFW [M1V], which protein stability index is on record?
**A.** 3.6

**Q.** For QNLHVYISEHEHFTDFNATSALFW [M1Q], which protein stability index is on record?
**A.** 2.58

**Q.** With NNLHVYISEHEHFTDFNATSALFW [M1N] as the variant, how does the protein stability index read?
**A.** 3.69

**Q.** Which protein stability index does the source give for SNLHVYISEHEHFTDFNATSALFW [M1S] here?
**A.** 2.69

**Q.** With MNLHVYISEHEHFADFNATSALFW [T14A] as the variant, how does the protein stability index read?
**A.** 3.39

**Q.** With MNLHVYISEHEHFEDFNATSALFW [T14E] as the variant, how does the protein stability index read?
**A.** 3.86

**Q.** For MNLHVYISEHEHFYDFNATSALFW [T14Y], which protein stability index is on record?
**A.** 1.62

**Q.** Which protein stability index does the source give for MNLHVYISEHEHFSDFNATSALFW [T14S] here?
**A.** 3.26

**Q.** Which protein stability index does the source give for MNLHVYISEHEHFMDFNATSALFW [T14M] here?
**A.** 4.02

**Q.** With MNLHVYISEHEHFKDFNATSALFW [T14K] as the variant, how does the protein stability index read?
**A.** 3.17

**Q.** Which protein stability index does the source give for MNLHVYISEHEHFQDFNATSALFW [T14Q] here?
**A.** 2.62

**Q.** Which protein stability index does the source give for MNLHVYISEHEHFHDFNATSALFW [T14H] here?
**A.** 4.34

**Q.** For MNLHVYISEHEHFPDFNATSALFW [T14P], which protein stability index is on record?
**A.** 4.65

**Q.** For MNLHVYISEHEHFVDFNATSALFW [T14V], which protein stability index is on record?
**A.** 1.81

**Q.** For MNLHVYISEHEHFIDFNATSALFW [T14I], which protein stability index is on record?
**A.** 2.23

**Q.** Which protein stability index does the source give for MNLHVYISEHEHFCDFNATSALFW [T14C] here?
**A.** 3.04

**Q.** For MNLLVYISEHEHFTDFNATSALFW [H4L], which protein stability index is on record?
**A.** 2.97

**Q.** For MNLRVYISEHEHFTDFNATSALFW [H4R], which protein stability index is on record?
**A.** 5.47

**Q.** For MNLQVYISEHEHFTDFNATSALFW [H4Q], which protein stability index is on record?
**A.** 2.12

**Q.** With MNLPVYISEHEHFTDFNATSALFW [H4P] as the variant, how does the protein stability index read?
**A.** 1.43

**Q.** Which protein stability index does the source give for MNLYVYISEHEHFTDFNATSALFW [H4Y] here?
**A.** 4.32

**Q.** With MNLMVYISEHEHFTDFNATSALFW [H4M] as the variant, how does the protein stability index read?
**A.** 2.69

**Q.** With MNLEVYISEHEHFTDFNATSALFW [H4E] as the variant, how does the protein stability index read?
**A.** 1.45

**Q.** Which protein stability index does the source give for MNLIVYISEHEHFTDFNATSALFW [H4I] here?
**A.** 2.62

**Q.** For MNLKVYISEHEHFTDFNATSALFW [H4K], which protein stability index is on record?
**A.** 1.99

**Q.** For MNLFVYISEHEHFTDFNATSALFW [H4F], which protein stability index is on record?
**A.** 1.89

**Q.** For MNLWVYISEHEHFTDFNATSALFW [H4W], which protein stability index is on record?
**A.** 4.27

**Q.** With MNLHVYISEHEHPTDFNATSALFW [F13P] as the variant, how does the protein stability index read?
**A.** 2.63

**Q.** With MNLHVYISEHEHNTDFNATSALFW [F13N] as the variant, how does the protein stability index read?
**A.** 3.8

**Q.** With MNLHVYISEHEHTTDFNATSALFW [F13T] as the variant, how does the protein stability index read?
**A.** 1.95

**Q.** With MNLHVYISEHEHHTDFNATSALFW [F13H] as the variant, how does the protein stability index read?
**A.** 2.67

**Q.** Which protein stability index does the source give for MNLHVYISEHEHATDFNATSALFW [F13A] here?
**A.** 3.39

**Q.** For MNLHVYISEHEHSTDFNATSALFW [F13S], which protein stability index is on record?
**A.** 2.4

**Q.** Which protein stability index does the source give for MNLHVYISEHEHLTDFNATSALFW [F13L] here?
**A.** 4.51

**Q.** Which protein stability index does the source give for MNLHVYISEHEHKTDFNATSALFW [F13K] here?
**A.** 4.65

**Q.** For MNLHVYISEHEHETDFNATSALFW [F13E], which protein stability index is on record?
**A.** 3.52

**Q.** Which protein stability index does the source give for MNLHVYISEHEHQTDFNATSALFW [F13Q] here?
**A.** 2.2

**Q.** For MNLHVYISEHEHRTDFNATSALFW [F13R], which protein stability index is on record?
**A.** 2.5

**Q.** With MNLHVYISEHEHGTDFNATSALFW [F13G] as the variant, how does the protein stability index read?
**A.** 2.42

**Q.** For MNLHVYISEHEHWTDFNATSALFW [F13W], which protein stability index is on record?
**A.** 4.9

**Q.** With MNLHVYISEHEHCTDFNATSALFW [F13C] as the variant, how does the protein stability index read?
**A.** 2.51

**Q.** Which protein stability index does the source give for MNLHVYISEHEHVTDFNATSALFW [F13V] here?
**A.** 2.63

**Q.** Which protein stability index does the source give for MNLHVYISEHEHFTEFNATSALFW [D15E] here?
**A.** 2.73

**Q.** Which protein stability index does the source give for MNLHVYISEHEHFTMFNATSALFW [D15M] here?
**A.** 3

**Q.** For MNLHVYISEHEHFTQFNATSALFW [D15Q], which protein stability index is on record?
**A.** 2.3

**Q.** With MNLHVYISEHEHFTAFNATSALFW [D15A] as the variant, how does the protein stability index read?
**A.** 3.71

**Q.** Which protein stability index does the source give for MNLHVYISEHEHFTCFNATSALFW [D15C] here?
**A.** 2.43

**Q.** With MNLHVYISEHEHFTWFNATSALFW [D15W] as the variant, how does the protein stability index read?
**A.** 3.89

**Q.** Which protein stability index does the source give for MNLHVYISEHEHFTSFNATSALFW [D15S] here?
**A.** 4.3

**Q.** For MNLHVYISEHEHFTYFNATSALFW [D15Y], which protein stability index is on record?
**A.** 2.52

**Q.** With MNLHVYISEHEHFTKFNATSALFW [D15K] as the variant, how does the protein stability index read?
**A.** 2.71

**Q.** Which protein stability index does the source give for MNLHVYISEHEHFTTFNATSALFW [D15T] here?
**A.** 3.63

**Q.** For MNLHNYISEHEHFTDFNATSALFW [V5N], which protein stability index is on record?
**A.** 1.39

**Q.** For MNLHYYISEHEHFTDFNATSALFW [V5Y], which protein stability index is on record?
**A.** 2.24

**Q.** For MNLHEYISEHEHFTDFNATSALFW [V5E], which protein stability index is on record?
**A.** 1.34

**Q.** With MNLHHYISEHEHFTDFNATSALFW [V5H] as the variant, how does the protein stability index read?
**A.** 2.42

**Q.** With MNLHSYISEHEHFTDFNATSALFW [V5S] as the variant, how does the protein stability index read?
**A.** 3.51

**Q.** With MNLHDYISEHEHFTDFNATSALFW [V5D] as the variant, how does the protein stability index read?
**A.** 2.1

**Q.** For MNLHKYISEHEHFTDFNATSALFW [V5K], which protein stability index is on record?
**A.** 2.01

**Q.** For MNLHQYISEHEHFTDFNATSALFW [V5Q], which protein stability index is on record?
**A.** 1.48

**Q.** With MNLHLYISEHEHFTDFNATSALFW [V5L] as the variant, how does the protein stability index read?
**A.** 2.05

**Q.** With MNLHMYISEHEHFTDFNATSALFW [V5M] as the variant, how does the protein stability index read?
**A.** 3.04

**Q.** For MNLHAYISEHEHFTDFNATSALFW [V5A], which protein stability index is on record?
**A.** 2.42

**Q.** Which protein stability index does the source give for MNLHIYISEHEHFTDFNATSALFW [V5I] here?
**A.** 3.89

**Q.** With MNLHWYISEHEHFTDFNATSALFW [V5W] as the variant, how does the protein stability index read?
**A.** 4.32

**Q.** For MNLHTYISEHEHFTDFNATSALFW [V5T], which protein stability index is on record?
**A.** 1.76

**Q.** With MPLHVYISEHEHFTDFNATSALFW [N2P] as the variant, how does the protein stability index read?
**A.** 1.55

**Q.** With MLLHVYISEHEHFTDFNATSALFW [N2L] as the variant, how does the protein stability index read?
**A.** 2.57

**Q.** With MTLHVYISEHEHFTDFNATSALFW [N2T] as the variant, how does the protein stability index read?
**A.** 2.58

**Q.** With MMLHVYISEHEHFTDFNATSALFW [N2M] as the variant, how does the protein stability index read?
**A.** 2.77

**Q.** For MVLHVYISEHEHFTDFNATSALFW [N2V], which protein stability index is on record?
**A.** 3.88

**Q.** With MILHVYISEHEHFTDFNATSALFW [N2I] as the variant, how does the protein stability index read?
**A.** 2.04

**Q.** For MYLHVYISEHEHFTDFNATSALFW [N2Y], which protein stability index is on record?
**A.** 2.55

**Q.** Which protein stability index does the source give for MQLHVYISEHEHFTDFNATSALFW [N2Q] here?
**A.** 1

**Q.** With MSLHVYISEHEHFTDFNATSALFW [N2S] as the variant, how does the protein stability index read?
**A.** 4.89

**Q.** For MFLHVYISEHEHFTDFNATSALFW [N2F], which protein stability index is on record?
**A.** 3.32

**Q.** For MDLHVYISEHEHFTDFNATSALFW [N2D], which protein stability index is on record?
**A.** 1.53

**Q.** For MCLHVYISEHEHFTDFNATSALFW [N2C], which protein stability index is on record?
**A.** 2.73

**Q.** For MGLHVYISEHEHFTDFNATSALFW [N2G], which protein stability index is on record?
**A.** 2.73
